# Assay results as given in article PMC10373542 (Journal of Virology, 2023).
# B1: X17 monoclonal antibody (antibody, V domains shown)
# VH: QVQLQQSGAELARPGASVKLSCKASGYTFTFYWMQWLKQRPGQGLEWIGAIYPGDGDTRYTQRFKDKATLTADKSSSTAYIQLSSLASEDSAVYYCAGGEYDNYGFDYWGQGTTLTVSS
# VL: DIQMTQTTSSLSASLGDRVTISCRASQDISNYLNWYQQKPDGTVKLLIYYTSRLHSGVPSRFSGSGSGTDYSLTISNLEQEDIATYFCQQGTTLPYTFGGGTKLEIK
# B2: COVOX-45 monoclonal antibody (antibody, V domains shown)
# VH: QVQLVESGGGVVQPGRSLRLSCAASGFTFSTYAMHWVRQAPGKGLEWVAVLSYDGSNKYYADSVKGRFTISRDNSKNTLYLQMNSLRAEDTAVYYCAKGGSYAYYYYMDVWGKGTTVTVSS
# VL: not shown
# B3: N-612-056 monoclonal antibody (antibody, V domains shown)
# VH: not shown
# VL: DIQMTQSPSSLSASVGDRVTITCQASQDISNYLNWYQQKPGKAPKLLIYDASNLETGVPSRFSGSGSGTDFTFTISSLQPEDIATYYCQQDAGTPLTFGQGTKVEIK
# B4: WRAIR-2057 monoclonal antibody (antibody, V domains shown)
# VH: EVQLVQSGAEVKKPGESLKISCKGSGYSFISYWIAWVRQMPGKGLEWMGIIYPGDSDTTYSPSFQGQVTISADKSISTAYLQWSSLKASDTAIYYCARLLYYSDSSPLDSWGQGTLVTVSS
# VL: DIQMTQSPSSLSASVGDRVTITCRASQSISTYLNWYQQKPGKAPNLLIYAASSLQSGVPSRFSGSGSGTDFTLTISSLQPEDFATYYCQQSHSTPRTFGPGTKVDIK
# B5: WRAIR-2134 monoclonal antibody (antibody, V domains shown)
# VH: EVQLVESGGGVVQPGRSLRLSCAASGFIFSSYGMYWVRQAPGKGLEWVAVIWYDGSNKYYADSVKGRFTISRDNSKNTLYLQMNSLRAEDTAVYYCARDLSSSSGWDDYYYYYGMDVWGQGTTVTVSS
# VL: not shown
# B6: 7D6 monoclonal antibody (antibody, V domains shown)
# VH: EVQLQQSGAELVRPGASVKLSCTASGFNIKDTYIHWVKQRPEQGLEWIGRIDPGDGDTEYDPSFQGKATITADTSSNTAYLELSSLTSEDTAVYYCTRFYDYVDYGMDYWGQGTSVTVSS
# VL: DIQMTQSPASLSASVGETVTITCRASGNIHNYLAWYQQKQGKSPQLLVYNAKTLADGVPSRFSGSGSGTQYSLKINSLQPEDFGSYYCQHFWSTPPWTFGGGTKLEVK
# B7: FD20 monoclonal antibody (antibody, V domains shown)
# VH: QVQLQQSGAEVKKPGSSVKVSCKASGGTFSSYAFSWVRQAPGQGLEWMGRIIPILGIANYAQKFQGRVTITADISTSTAYMALSSLRSEDTAVYYCAKVEVNIGMDDYYYYYGMDVWGQGTTVTVSS
# VL: not shown
# B8: 6D6 monoclonal antibody (antibody, V domains shown)
# VH: EVQLQQSGAELVKPGASVKLSCTTSGFNIIDTYMHWVKQRPEEGLEWIGGIDPVNGNSEYDPKFQDKATITADTSSNTAYLHLSRLTSEDTAVYYCASAHYYGSSSSFPYWGQGTDLVTVS
# VL: DIVMTQSQKFMSTSVGDRVSVTCKASQNVGTHVAWYQQKPGQSPKALIYSASYRYSGVPDRFTGSGVGTDFTLTITNVQSEDLAEYFCQQYNSYFTFGSGTKLEIK
# B9: ION-300 monoclonal antibody (antibody, V domains shown)
# VH: QVQLVQSGAEVKKPGESLKISCKGSGYSFTSYWIGWVRQMPGKGLEWMGIIYPGDSDTRYSPSFQGQVTISADKSISTAYLQWSSLKASDTAMYYCARHPSPYYYGSGSYSGGFDYWGQGTLVTVSS
# VL: DIVMTQSPGTLSLSPGERATLSCRASQSVSSSYLAWYQQKPGQAPRLLIYGASTRATGIPARFSGSGSGTEFTLTISSLQSEDFAVYYCQQYDNWPLMHTFGQGTKLEIK
# B10: S2H97 monoclonal antibody (antibody, V domains shown)
# VH: QVRLVQSGAEVKKSGESLKISCKGSGYSFTSYWIGWVRQMPGKGLEWMGIIYPGDSDTRYSPSFQGQVTISADKSISTVYLQWSSLKASDTAMYYCARQWSHYTYDYYYWGQGTLVTISS
# VL: QSVLTQPASVSGSPGQSITISCTGISSDVGGYNSVSWYQQHPGKAPKLMIYDVTNRPSGVSNRFSGSKSGNTASLTISGLQAEDEADYYCSSYTSSSTPPYVFGTGTKVSVL
# B11: Walter Reed Army Institute of Research 2063 (WRAIR-2063) monoclonal antibody, human IgG1 (antibody, V domains shown)
# VH: EVQLVESGGGVVQPGRSLRLSCAASGFTFSSYGMHWVRQAPGKGLEWVAVIWYDGSNKYYADSVKGRFTISRDNSKNTLYLQMNSLRAEDTAVYYCARGPLGSNYFNYDAFDIWGQGTMVTVSS
# VL: DVVMTQSPLSLPVTLGQPASISCRSSQSLEYSDGNTYLNWFQQRPGQSPRRLIYKVSKRDSGVPDRFSGSGSGSDFTLKISRVEAEDVGVYYCMQGTHWPLTFGGGTKVEIK
# Molecular target: T1, SARS-CoV-2 WA-1 spike receptor binding domain (RBD) (SARS-CoV-2 WA-1 (S identical to …, UniProt P0DTC2))
# Assay: BLI
row,Binder,fold higher rate of dissociation (koff) than with WRAIR-2063 [fold]
1,B1,~10
2,B2,~10
3,B3,~10
4,B4,~10
5,B5,~10
6,B6,~10
7,B7,~10
8,B8,~10
9,B9,~10

# Molecular target: T1, SARS-CoV-2 WA-1 spike receptor binding …
# Assay: BLI
# Remark: another data set of the same source
row,Binder,Kd [nM]
1,B1,4.72
2,B2,4.43
3,B3,6.31
4,B4,6.3
5,B5,4.26
6,B6,3.41
7,B7,3.07
8,B10,0.9
9,B8,3.62
10,B9,3.65

# Molecular target: T1, SARS-CoV-2 WA-1 spike receptor binding …
# Assay: cell-based or functional assay
row,Binder,IC50 of neutralization of WA-1 pseudotyped virus on HEK293 cells expressing ACE2 [µg/mL]
1,B1,2.27
2,B2,0.32
3,B3,4.47
4,B4,1.85
5,B5,18.6
6,B6,0.33
7,B11,0.45
8,B7,0.6
9,B10,0.31
10,B8,1.37
11,B9,0.99
